# Measurements from patent publication US20090123479A1 (published 2009).
# T1: recombinant human IL-23 (human, UniProt Q9NPF7 20-189; P29460 23-328)
# T1 construct: also called hIL-23
# T1 sequence 1: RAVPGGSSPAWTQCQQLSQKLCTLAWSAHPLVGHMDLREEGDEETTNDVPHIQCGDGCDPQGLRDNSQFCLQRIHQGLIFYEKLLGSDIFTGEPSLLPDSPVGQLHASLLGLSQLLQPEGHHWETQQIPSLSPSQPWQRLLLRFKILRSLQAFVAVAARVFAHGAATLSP
# T1 sequence 2: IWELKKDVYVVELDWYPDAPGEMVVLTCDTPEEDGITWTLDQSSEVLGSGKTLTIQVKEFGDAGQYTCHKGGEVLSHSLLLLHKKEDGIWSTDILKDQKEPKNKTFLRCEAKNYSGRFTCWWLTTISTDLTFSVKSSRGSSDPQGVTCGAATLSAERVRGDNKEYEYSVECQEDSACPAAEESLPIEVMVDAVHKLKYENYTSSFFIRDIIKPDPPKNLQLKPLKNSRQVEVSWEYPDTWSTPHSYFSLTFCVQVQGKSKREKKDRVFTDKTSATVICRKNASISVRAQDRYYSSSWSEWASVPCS
# Target: T1, recombinant human IL-23
# Assay: SPR (Biacore T100), tissue culture supernatant antibody captured on anti-human IgG, IL-23 analyte
# Procedure: Biacore analysis was carried out using a capture surface on a CM5 chip. Anti-human IgG (BR-1008-39) was used as the capturing agent. Anti-human IgG was coupled to a CM5 biosensor chip by primary amine coupling. Humanized antibody was captured on this immobilised surface and defined concentrations of IL-23 were passed over this captured surface. An injection of buffer over the captured antibody surface was used for double-referencing. […] T100 Biacore machine was used to generate the data; all runs were carried out at 25° C. using HBS EP. Data was analysed using the software inherent to the machine and fitted to the 1:1 model of binding. Tables 7 and 8 detail the IL-23 binding analysis carried out on the 8C92H6.HC1LC1 chimera and selected humanized variants in two separate experiments. […] The data shown for the humanized variants is representative of a number of runs. The chimeric mAb (8C9H6.HC1LC1) was only run once in each experiment, so data shown for this mAb is from that one run.
Binder,Kd,koff,kon
"A12.5M3 (antibody, V domains shown) VH: QVQLVQSGAEVKKPGSSVKVSCKASGYTFASYGITWVRQAPGQGLEWMGENYPRSGNTYYNEKFKGRVTITADKSTSTAYMELSSLRSEDTAVYYCARVEFISTVVAPYYYALDYWGQGTLVTVSS VL: DIVMTQSPDSLAVSLGERATINCKASKKVTIFGSTSALHWYQQKPGQPPKLIYNGAKLESGVPDRFSGSGSGTDFTLTISSLQAEDVAVYYCLQNKEVPYTFGGGTKVEIK",0.0637 nM,0.000172 s⁻¹,2.7e+06 M⁻¹ s⁻¹
"A3M6 (antibody, human IgG1, kappa, V domains shown, Full length chains) VH: QVQLVQSGAEVKKPGSSVKVSCKASGYTFTSYGITWVRQAPGQGLEWMGENYPRSGNTYYNEKFKGRVTITADKSTSTAYMELSSLRSEDTAVYYCARSEFISTVVAPYYYALDYWGQGTLVTVSS VL: DIVMTQSPDSLAVSLGERATINCKASKKVTIFGSISALHWYQQKPGQPPKLIYQGAKLESGVPDRFSGSGSGTDFTLTISSLQAEDVAVYYCLQNKEVPYTFGGGTKVEIKR",1.23 nM,0.0011 s⁻¹,896000 M⁻¹ s⁻¹
"A11.5M4 (antibody, V domains shown) VH: QVQLVQSGAEVKKPGSSVKVSCKASGYTFASYGITWVRQAPGQGLEWMGENYPRSGNTYYNEKFKGRVTITADKSTSTAYMELSSLRSEDTAVYYCARAEFISTVVAPYYYALDYWGQGTLVTVSS VL: DIVMTQSPDSLAVSLGERATINCKASKKVTIFGSTSALHWYQQKPGQPPKLIYNGAKPESGVPDRFSGSGSGTDFTLTISSLQAEDVAVYYCLQNKEVPYTFGGGTKVEIK",0.0665 nM,9.62e-05 s⁻¹,1.45e+06 M⁻¹ s⁻¹
"A5M4 (antibody, human IgG1, kappa, V domains shown, Full length chains) VH: QVQLVQSGAEVKKPGSSVKVSCKASGYTFTSYGITWVRQAPGQGLEWMGENYPRSGNTYYNEKFKGRVTITADKSTSTAYMELSSLRSEDTAVYYCARAEFISTVVAPYYYALDYWGQGTLVTVSS VL: DIVMTQSPDSLAVSLGERATINCKASKKVTIFGSTSALHWYQQKPGQPPKLIYNGAKPESGVPDRFSGSGSGTDFTLTISSLQAEDVAVYYCLQNKEVPYTFGGGTKVEIKR",0.053 nM,0.000101 s⁻¹,1.91e+06 M⁻¹ s⁻¹
"A11M4 (antibody, V domains shown) VH: QVQLVQSGAEVKKPGSSVKVSCKASGYTFASYGITWVRQAPGQGLEWMGENYPRSGNTYYNEKFKGRVTITADKSTSTAYMELSSLRSEDTAMYYCARAEFISTVVAPYYYALDYWGQGTLVTVSS VL: DIVMTQSPDSLAVSLGERATINCKASKKVTIFGSTSALHWYQQKPGQPPKLIYNGAKPESGVPDRFSGSGSGTDFTLTISSLQAEDVAVYYCLQNKEVPYTFGGGTKVEIK",0.0444 nM,9.18e-05 s⁻¹,2.07e+06 M⁻¹ s⁻¹
"A11.5M3 (antibody, V domains shown) VH: QVQLVQSGAEVKKPGSSVKVSCKASGYTFASYGITWVRQAPGQGLEWMGENYPRSGNTYYNEKFKGRVTITADKSTSTAYMELSSLRSEDTAVYYCARAEFISTVVAPYYYALDYWGQGTLVTVSS VL: DIVMTQSPDSLAVSLGERATINCKASKKVTIFGSTSALHWYQQKPGQPPKLIYNGAKLESGVPDRFSGSGSGTDFTLTISSLQAEDVAVYYCLQNKEVPYTFGGGTKVEIK",0.0606 nM,9.38e-05 s⁻¹,1.55e+06 M⁻¹ s⁻¹
"A7M4 (antibody, human IgG1, kappa, V domains shown, Full length chains) VH: QVQLVQSGAEVKKPGSSVKVSCKASGYTFTSYGITWVRQAPGQGLEWMGEDYPRSGNTYYNEKFKGRVTITADKSTSTAYMELSSLRSEDTAVYYCARSEFISTVVAPYYYALDYWGQGTLVTVSS VL: DIVMTQSPDSLAVSLGERATINCKASKKVTIFGSTSALHWYQQKPGQPPKLIYNGAKPESGVPDRFSGSGSGTDFTLTISSLQAEDVAVYYCLQNKEVPYTFGGGTKVEIKR",0.0918 nM,0.000123 s⁻¹,1.34e+06 M⁻¹ s⁻¹

# Further binders by falling Kd, results first:
Kd,koff,kon,Binder
26.4 nM,0.0012 s⁻¹,45500 M⁻¹ s⁻¹,"A3M5 (antibody, human IgG1, kappa, V domains shown, Full length chains) VH: QVQLVQSGAEVKKPGSSVKVSCKASGYTFTSYGITWVRQAPGQGLEWMGENYPRSGNTYYNEKFKGRVTITADKSTSTAYMELSSLRSEDTAVYYCARSEFISTVVAPYYYALDYWGQGTLVTVSS VL: DIVMTQSPDSLAVSLGERATINCKASKKVTIFGSISALHWYQQKPGQPPKLIYDGAKLESGVPDRFSGSGSGTDFTLTISSLQAEDVAVYYCLQNKEVPYTFGGGTKVEIKR"
0.106 nM,0.000117 s⁻¹,1.11e+06 M⁻¹ s⁻¹,"A10M3 (antibody, human IgG1, kappa, V domains shown, Full length chains) VH: QVQLVQSGAEVKKPGSSVKVSCKASGYTFASYGITWVRQAPGQGLEWMGENYPRSGNTYYNEKFKGRVTITADKSTSTAYMELSSLRSEDTAMYYCARSEFISTVVAPYYYALDYWGQGTLVTVSS VL: DIVMTQSPDSLAVSLGERATINCKASKKVTIFGSTSALHWYQQKPGQPPKLIYNGAKLESGVPDRFSGSGSGTDFTLTISSLQAEDVAVYYCLQNKEVPYTFGGGTKVEIKR"
0.0962 nM,0.000115 s⁻¹,1.19e+06 M⁻¹ s⁻¹,"A10.5M3 (antibody, V domains shown) VH: QVQLVQSGAEVKKPGSSVKVSCKASGYTFASYGITWVRQAPGQGLEWMGENYPRSGNTYYNEKFKGRVTITADKSTSTAYMELSSLRSEDTAVYYCARSEFISTVVAPYYYALDYWGQGTLVTVSS VL: DIVMTQSPDSLAVSLGERATINCKASKKVTIFGSTSALHWYQQKPGQPPKLIYNGAKLESGVPDRFSGSGSGTDFTLTISSLQAEDVAVYYCLQNKEVPYTFGGGTKVEIK"
0.0775 nM,0.000106 s⁻¹,1.36e+06 M⁻¹ s⁻¹,"A3M4 (antibody, human IgG1, kappa, V domains shown, Full length chains) VH: QVQLVQSGAEVKKPGSSVKVSCKASGYTFTSYGITWVRQAPGQGLEWMGENYPRSGNTYYNEKFKGRVTITADKSTSTAYMELSSLRSEDTAVYYCARSEFISTVVAPYYYALDYWGQGTLVTVSS VL: DIVMTQSPDSLAVSLGERATINCKASKKVTIFGSTSALHWYQQKPGQPPKLIYNGAKPESGVPDRFSGSGSGTDFTLTISSLQAEDVAVYYCLQNKEVPYTFGGGTKVEIKR"
0.0733 nM,0.000107 s⁻¹,1.46e+06 M⁻¹ s⁻¹,"A10M4 (antibody, human IgG1, kappa, V domains shown, Full length chains) VH: QVQLVQSGAEVKKPGSSVKVSCKASGYTFASYGITWVRQAPGQGLEWMGENYPRSGNTYYNEKFKGRVTITADKSTSTAYMELSSLRSEDTAMYYCARSEFISTVVAPYYYALDYWGQGTLVTVSS VL: DIVMTQSPDSLAVSLGERATINCKASKKVTIFGSTSALHWYQQKPGQPPKLIYNGAKPESGVPDRFSGSGSGTDFTLTISSLQAEDVAVYYCLQNKEVPYTFGGGTKVEIKR"
0.0671 nM,9.57e-05 s⁻¹,1.43e+06 M⁻¹ s⁻¹,"A11M3 (antibody, V domains shown) VH: QVQLVQSGAEVKKPGSSVKVSCKASGYTFASYGITWVRQAPGQGLEWMGENYPRSGNTYYNEKFKGRVTITADKSTSTAYMELSSLRSEDTAMYYCARAEFISTVVAPYYYALDYWGQGTLVTVSS VL: DIVMTQSPDSLAVSLGERATINCKASKKVTIFGSTSALHWYQQKPGQPPKLIYNGAKLESGVPDRFSGSGSGTDFTLTISSLQAEDVAVYYCLQNKEVPYTFGGGTKVEIK"
0.0465 nM,0.000149 s⁻¹,3.22e+06 M⁻¹ s⁻¹,"A6M4 (antibody, human IgG1, kappa, V domains shown, Full length chains) VH: QVQLVQSGAEVKKPGSSVKVSCKASGYTFTSYGITWVRQAPGQGLEWMGENYPRSGNTYYNEKFKGRVTITADKSTSTAYMELSSLRSEDTAVYYCARVEFISTVVAPYYYALDYWGQGTLVTVSS VL: DIVMTQSPDSLAVSLGERATINCKASKKVTIFGSTSALHWYQQKPGQPPKLIYNGAKPESGVPDRFSGSGSGTDFTLTISSLQAEDVAVYYCLQNKEVPYTFGGGTKVEIKR"
0.0462 nM,9.58e-05 s⁻¹,2.08e+06 M⁻¹ s⁻¹,"A8M4 (antibody, V domains shown) VH: QVQLVQSGAEVKKPGSSVKVSCKASGYTFTSYGITWVRQAPGQGLEWMGEDYPRSGNTYYNEKFKGRVTITADKSTSTAYMELSSLRSEDTAVYYCARAEFISTVVAPYYYALDYWGQGTLVTVSS VL: DIVMTQSPDSLAVSLGERATINCKASKKVTIFGSTSALHWYQQKPGQPPKLIYNGAKPESGVPDRFSGSGSGTDFTLTISSLQAEDVAVYYCLQNKEVPYTFGGGTKVEIK"
0.0456 nM,0.000129 s⁻¹,2.83e+06 M⁻¹ s⁻¹,"A9M4 (antibody, V domains shown) VH: QVQLVQSGAEVKKPGSSVKVSCKASGYTFTSYGITWVRQAPGQGLEWMGEDYPRSGNTYYNEKFKGRVTITADKSTSTAYMELSSLRSEDTAVYYCARVEFISTVVAPYYYALDYWGQGTLVTVSS VL: DIVMTQSPDSLAVSLGERATINCKASKKVTIFGSTSALHWYQQKPGQPPKLIYNGAKPESGVPDRFSGSGSGTDFTLTISSLQAEDVAVYYCLQNKEVPYTFGGGTKVEIK"
0.0416 nM,8.64e-05 s⁻¹,2.08e+06 M⁻¹ s⁻¹,"A10.5M4 (antibody, V domains shown) VH: QVQLVQSGAEVKKPGSSVKVSCKASGYTFASYGITWVRQAPGQGLEWMGENYPRSGNTYYNEKFKGRVTITADKSTSTAYMELSSLRSEDTAVYYCARSEFISTVVAPYYYALDYWGQGTLVTVSS VL: DIVMTQSPDSLAVSLGERATINCKASKKVTIFGSTSALHWYQQKPGQPPKLIYNGAKPESGVPDRFSGSGSGTDFTLTISSLQAEDVAVYYCLQNKEVPYTFGGGTKVEIK"
